This note sets out measurements from US20170184612A1, “USE OF LEUKOCYTES AND NOVEL BIOMARKERS IN THE DIAGNOSIS, CONFIRMATION, AND TREATMENT OF A NEUROLOGICAL DISORDER” (The Trustees of Columbia University in the City of New York, priority 2014, published 2017).

The assay concerns the target SIINFEKL-MHC-I (SIINFEKL peptide bound to MHC-I H-2Kb) (chicken; mouse). Put plainly: cell-based or functional assay.

In turn, “T cell receptor of OT-1 CD8+ T cells (TCR)” gave a neuronal death (TH+ neurons killed by CTLs) of 55%.
